Measurements reported in article PMC8386582 (Biomaterials, 2020).

Biological target: CD19 (Homo sapiens (Raji, SU-DHL-7 cells), UniProt P15391)
Experiment: flow cytometry on cells

Sequence of CD19 (P15391 20-556): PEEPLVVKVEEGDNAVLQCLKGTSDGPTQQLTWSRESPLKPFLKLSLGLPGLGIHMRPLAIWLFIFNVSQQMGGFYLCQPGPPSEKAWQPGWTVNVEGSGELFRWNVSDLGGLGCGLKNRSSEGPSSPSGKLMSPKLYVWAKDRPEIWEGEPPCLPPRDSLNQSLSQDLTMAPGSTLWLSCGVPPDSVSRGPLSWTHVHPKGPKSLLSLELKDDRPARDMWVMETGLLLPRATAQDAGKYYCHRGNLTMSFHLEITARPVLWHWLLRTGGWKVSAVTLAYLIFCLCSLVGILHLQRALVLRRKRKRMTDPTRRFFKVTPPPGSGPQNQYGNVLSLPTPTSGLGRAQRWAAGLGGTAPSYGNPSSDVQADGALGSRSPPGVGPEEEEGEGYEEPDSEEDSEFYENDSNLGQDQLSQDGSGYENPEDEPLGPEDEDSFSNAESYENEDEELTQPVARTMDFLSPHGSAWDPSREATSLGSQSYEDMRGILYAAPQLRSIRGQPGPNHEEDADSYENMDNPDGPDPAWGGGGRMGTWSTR

B1: aCD19A (anti-CD19-A192) Nanoworm (scFv, V domains shown)
VH: QVQLQQSGAELVRPGSSVKISCKASGYAFSSYWMNWVKQRPGQGLEWIGQIWPGDGDTNYNGKFKGKATLTADESSSTAYMQLSSLASEDSAVYFCARRETTTVGRYYYAMDYWGQGTTVTVSS
VL: DIQLTQSPASLAVSLGQRATISCKASQSVDYDGDSYLNWYQQIPGQPPKLLIYDASNLVSGIPPRFSGSGSGTDFTLNIHPVEKVDAATYHCQQSTEDPWTFGGGTKLEIK
B1: binds.
